# According to patent publication US20250250314:
# Biological target: UCM12
# Sequence (chain, as listed by the source, chain 1 of 3, other chains not shown): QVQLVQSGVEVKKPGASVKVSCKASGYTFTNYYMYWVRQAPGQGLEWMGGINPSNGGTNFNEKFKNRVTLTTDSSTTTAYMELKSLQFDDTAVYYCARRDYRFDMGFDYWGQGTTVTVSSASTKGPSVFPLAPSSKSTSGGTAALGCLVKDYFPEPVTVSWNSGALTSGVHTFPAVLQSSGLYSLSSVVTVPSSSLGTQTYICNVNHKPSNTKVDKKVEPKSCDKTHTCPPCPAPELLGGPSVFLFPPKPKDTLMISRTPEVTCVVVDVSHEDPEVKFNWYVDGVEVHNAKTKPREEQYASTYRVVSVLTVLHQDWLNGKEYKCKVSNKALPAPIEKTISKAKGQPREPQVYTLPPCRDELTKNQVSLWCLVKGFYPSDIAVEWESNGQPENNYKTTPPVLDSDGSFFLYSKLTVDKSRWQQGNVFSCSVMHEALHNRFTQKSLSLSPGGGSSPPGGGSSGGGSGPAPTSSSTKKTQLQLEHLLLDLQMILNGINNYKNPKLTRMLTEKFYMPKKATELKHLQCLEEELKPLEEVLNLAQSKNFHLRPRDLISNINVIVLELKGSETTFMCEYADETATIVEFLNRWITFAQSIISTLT
# Sequence (chain, as listed by the source, chain 2 of 3, other chains not shown): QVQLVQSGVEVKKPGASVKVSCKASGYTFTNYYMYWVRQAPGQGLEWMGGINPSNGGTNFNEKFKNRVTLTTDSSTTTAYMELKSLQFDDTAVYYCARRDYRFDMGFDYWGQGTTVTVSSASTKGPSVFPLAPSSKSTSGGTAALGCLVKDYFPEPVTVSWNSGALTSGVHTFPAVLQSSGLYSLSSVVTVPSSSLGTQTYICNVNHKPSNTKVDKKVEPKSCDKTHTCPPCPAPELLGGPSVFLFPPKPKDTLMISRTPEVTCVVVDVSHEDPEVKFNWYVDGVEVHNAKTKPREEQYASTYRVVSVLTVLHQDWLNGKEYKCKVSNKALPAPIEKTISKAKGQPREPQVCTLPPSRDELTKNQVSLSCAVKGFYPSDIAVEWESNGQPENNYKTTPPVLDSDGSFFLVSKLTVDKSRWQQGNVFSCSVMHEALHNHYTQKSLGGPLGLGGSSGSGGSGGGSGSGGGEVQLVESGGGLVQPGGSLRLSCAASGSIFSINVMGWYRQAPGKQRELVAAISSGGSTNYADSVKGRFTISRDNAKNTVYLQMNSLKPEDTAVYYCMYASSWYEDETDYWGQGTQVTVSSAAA
protein,measurement,value
MMP2 (protein) YNFFPRKPKWDKNQITYRIIGYTPDLDPETVDDAFARAFQVWSDVTPLRFSRIHDGEADIMINFGRWEHGDGYPFDGKDGLLAHAFAPGTGVGGDSHFDDDELWTLGEGQVVRVKYGNADGEYCKFPFLFNGKEYNSCTDTGRSDGFLWCSTTYNFEKDGKYGFCPHEALFTMGGNAEGQPCKFPFRFQGTSYDSCTTEGRTDGYRWCGTTEDYDRDKKYGFCPETAMSTVGGNSEGAPCVFPFTFLGNKYESCTSAGRSDGKMWCATTANYDDDRKWGFCPDQGYSLFLVAAHEFGHAMGLEHSQDPGALMAPIYTYTKNFRLSQDDIKGIQELYGASPDIDLGTGPTPTLGPVTPEICKQDIVFDGIAQIRGEIFFFKDRFIWRTVTPRDKPMGPLLVATFWPELPEKIDAVYEAPQEEKAVFFAGNEYWIYSASTLERGYPKPLTSLGLPPDVQRVDAAFNWSKNKKTYIFAGDKFWRYNEVKKKMDPGFPKLIADAWNAIPDNLDAVVDLQGGGHSYFFKGAYYLKLENQSLKSVKFGSIKSDWLGC,kcat/Km,1900 M⁻¹ s⁻¹
Matrix Metalloproteinase 1 (protein) FVLTEGNPRWEQTHLTYRIENYTPDLPRADVDHAIEKAFQLWSNVTPLTFTKVSEGQADIMISFVRGDHRDNSPFDGPGGNLAHAFQPGPGIGGDAHFDEDERWTNNFREYNLHRVAAHELGHSLGLSHSTDIGALMYPSYTFSGDVQLAQDDIDGIQAIYGRSQNPVQPIGPQTPKACDSKLTFDAITTIRGEVMFFKDRFYMRTNPFYPEVELNFISVFWPQLPNGLEAAYEFADRDEVRFFKGNKYWAVQGQNVLHGYPKDIYSSFGFPRTVKHIDAALSEENTGKTYFFVANKYWRYDEYKRSMDPGYPKMIAHDFPGIGHKVDAVFMKDGFFYFFHGTRQYKFDPKTKRILTLQKANSWFNCRKN,kcat/Km,230 M⁻¹ s⁻¹
